Measured values published in publication PMC7305028.
Read-outs that look alike come from different tables or passages of the source.

Legend:
Assay in all cases: native MS
[1] = biological target: FapF
[2] = biological target: FapF; remark: listed apart in the source
[3] = biological target: FapF; remark: listed apart in the source

Substance | stoichiometry N (per FapF trimer) [1] | stoichiometry N [2] | stoichiometry N [3] | stoichiometry N [1]
FapC (natural protein) | 1 | – | – | –
FapD (natural protein) | 1 | – | – | –
FapE (natural protein) | 1 | – | – | –
FapF (natural protein) | – | 3 | 3 | 3
